Molecular target: SARS-CoV-2-RBD(6×His融合蛋白，来自金斯瑞生物公司) (SARS-CoV-2, UniProt P0DTC2 319-541)
Experiment: ELISA, E. coli expression supernatant on coated SARS-CoV-2-RBD His

B1: 人源Fab抗体AS182561 (Fab, E. coli expression supernatant) (Fab, V domains shown, not shown: large carriers)
VH: EVQLVESGGGLVQPGGSLRLSCAASGFNIYSSYMHWVRQAPGKGLEWVASISPSYSYTSYADSVKGRFTISADTSKNTAYLQMNSLRAEDTAVYYCARYSYYGMDYWGQGTLVTVSA
VL: DIQMTQSPSSLSASVGDRVTITCRASQSVSSAVAWYQQKPGKAPKLLIYSASSLYSGVPSRFSGSRSGTDFTLTISSLQPEDFATYYCQQPPWHGLITFGQGTKVEIK
binding result: binds

From patent CN113045647A (NANJING LEGEND BIOTECH CO LTD, dated 2021)
